Patent US20230192853A1

Target: human CD8 on cells (HPBALL cells, TALL1 cells, CD8+ T cells of human whole blood and PBMCs) (human) (UniProt P01732)
Test: flow cytometry of human whole blood, AF647-labeled OKT8 at 20 ng/mL against CD3 APC-Vio770

Sequence of human CD8 on cells (HPBALL cells, TALL1 cells, CD8+ T cells of human whole blood and PBMCs) (human) (P01732 22-234 limits assumed): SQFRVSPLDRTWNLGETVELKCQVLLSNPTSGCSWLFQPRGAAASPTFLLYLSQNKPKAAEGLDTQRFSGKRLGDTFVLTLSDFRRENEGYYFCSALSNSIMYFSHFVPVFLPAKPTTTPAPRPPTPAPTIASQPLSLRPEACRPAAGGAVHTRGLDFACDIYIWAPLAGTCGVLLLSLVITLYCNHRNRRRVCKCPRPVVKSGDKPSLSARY

- share of events in Q2 (CD3 positive, mAb/VHH AF647 positive): 19.7%
- share of events in Q3 (CD3 negative, mAb/VHH AF647 positive): 0.73%
B1: OKT8 anti-CD8 IgG labeled with ALEXA FLUOR 647 (antibody, from another filing, V domains shown)
VH: EVQLQQSGAELVKPGASVKLSCTASGFNIKDTYIHFVRQRPEQGLEWIGRIDPANDNTLYASKFQGKATITADTSSNTAYMHLCSLTSGDTAVYYCGRGYGYYVFDHWGQGTTLTVSS
VL: DVQINQSPSFLAASPGETITINCRTSRSISQYLAWYQEKPGKTNKLLIYSGSTLQSGIPSRFSGSGSGTDFTLTISGLEPEDFAMYYCQQHNENPLTFGAGTKLELK
